Measured values taken from patent US20240409663A1 (CONCEPT TO MEDICINE BIOTECH, published 2024).

Key:
human GPC3 on cells [1] = target: T1, human GPC3 on cells (human, UniProt P51654 25-554); assay: FACS, Huh-7 cells
T1 construct: whole, on cells; over-expressed on CHOK1 cells or endogenous on HEPG2, Hep3B and Huh-7 hepatocellular carcinoma cells; the cell line is named under assay; also called GPC3-CHOK1 cells; human GPC3 over-expressed CHOK1 cells
Experimental: To evaluate the antigen binding property, the humanized antibodies were analyzed for their binding to human GPC3 over-expressed CHOK1 cells and Huh-7 cells by FACS. Briefly, GPC3-CHOK1 cells and Huh-7 cells were firstly incubated with Fc blocking reagent at 4° C. for 15 mins. Cells were washed by FACS buffer and divided to each well with 4-fold serially diluted humanized antibodies starting at 10 μg/mL at 4° C. for 60 mins. Cells were washed by FACS buffer and fixed with 2% PFA at RT for 15 mins. […] As different plates might affect the EC50 of 52H5D3B8-VH+VL, the 12 humanized antibodies were separated into two plates.

human GPC3 on cells [2] = target: T1, human GPC3 on cells; assay: FACS, GPC3-CHOK1 cells
Experimental: Briefly, GPC3-CHOK1 cells were firstly incubated with Fc blocking reagent at 4° C. for 15 mins. Cells were washed by FACS buffer and divided to each well with 3-fold serially diluted 52H5D3B8, 52H5D3B8-1 #, 52H5D3B8-2 #, 52H5D3B8-3 #, 52H5D3B8-4 #, 52H5D3B8-5 #, 52H5D3B8-6 #, 52H5D3B8-7 #, 52H5D3B8-8 #, 52H5D3B8-9 #, 52H5D3B8-10 #, 52H5D3B8-11 #, 52H5D3B8-12 #, 52H5D3B8-13 #, 52H5D3B8-14 # and 52H5D3B8-15# chimeric mAbs starting at 30 μg/mL at 4° C. for 60 mins. Cells were washed by FACS buffer and fixed with 2% PFA at RT for 15 mins. […] Samples were washed twice with FACS buffer.

human GPC3 on cells [3] = target: T1, human GPC3 on cells; assay: FACS, GPC3-CHOK1 cells; remark: listed apart in the source
Experimental: Cell-based binding: FACS was used to evaluate the binding activity of 52H5D3B8, 52H5D3B8-6 # chimeric mAbs and GC33 antibody on human GPC3 over-expressed CHOK1 cells, Hep3B cells and Huh-7 cells.
Briefly, GPC3-CHOK1 cells, Hep3B cells or Huh-7 cells were firstly incubated with Fc blocking reagent at 4° C. for 15 mins. Cells were washed by FACS buffer and divided to each well with 3-fold serially diluted 52H5D3B8, 52H5D3B8-6 # chimeric mAbs or GC33 antibody starting at 30 μg/mL at 4° C. for 60 mins. Cells were washed by FACS buffer and fixed with 2% PFA at RT for 15 mins. […] Samples were washed twice with FACS buffer.

[4] = target: T2, human GPC3 protein (ELISA coat) (human, UniProt P51654 25-559, limits assumed); assay: ELISA, coated human GPC3
T2 construct: protein coated on plates in the cross species ELISA
Experimental: (§1) ELISA testing was carried out to evaluate the binding of chimeric antibodies to human, mouse and cynomolgus GPC3, respectively.
(§2) Briefly, microtiter plates were coated with human, mouse and cynomolgus GPC3 proteins at 1 μg/ml in PBS, 100 μl/well at 4° C. overnight, then blocked with 150 μl/well of 1% BSA. Three-fold dilutions of chimeric antibodies starting from 9 μg/ml were added to each well and incubated for 1 hour at 37° C. The plates were washed with PBS/Tween and then incubate with mouse-anti-human IgG Fc antibody conjugated with Horse Radish Peroxidase (HRP) for 30 mins at 37° C. After washing, the plates were developed with TMB substrate and analyzed by spectrophotometer at OD 450 nm. The 52H5D3B8 antibody bound to human, cynomolgus GPC3 and mouse GPC3 (FIG. 3 and Table 4).

cynomolgus GPC3 protein = target: T3, cynomolgus GPC3 protein (cynomolgus, UniProt A0A2K5VK50 24-553, The natural protein carries heparan sulfate chains and may be cleaved by furin between the alpha (24-357) and beta (358-553) subunits, which stay disulfide-linked. It is written here as one …); assay: ELISA, coated cynomolgus GPC3
T3 construct: protein coated on plates in the cross species ELISA
Experimental: as §1, §2

- EC50 (human GPC3 on cells [1]): 0.0563 µg/mL
- EC50 (human GPC3 on cells [2]): 0.0705 µg/mL
- EC50 (human GPC3 on cells [3]): 0.07 µg/mL
- EC50 [4]: 0.017 µg/mL
- EC50 (cynomolgus GPC3 protein): 0.0152 µg/mL
B1: 52H5D3B8 chimeric mAb (antibody, V domains shown)
VH: QVQLQQSGAELVRPGASVKLSCKALGYTFTDYEMHWVKQTPVHGLEWIGAIHPGSGGTAYNQKFKGKATLTADKFSSTGYMELSSLTSEDSAVYYCTRFYSYAYWGQGTLVTVSA
VL: DVVMTQTPLSLPVSLGDQASISCRSSQSLVHSNGNTYLQWYLQKPGQSPKLLIYKVSNRFSGVPDRFSGSGSGTDFILKISRVEAEDLGVYFCSQSIHVPYTFGGGTKLEIK
notes: also called 52H5D3B8-VH+VL; chimeric 52H5D3B8 mAb
